Experimental data as given in IntAct's records for PubMed 21135237.

B1: Glutamate receptor 1 (Rattus norvegicus (Rat)), P19490 (parent)
chain: MPYIFAFFCTGFLGAVVGANFPNNIQIGGLFPNQQSQEHAAFRFALSQLTEPPKLLPQIDIVNISDSFEMTYRFCSQFSKGVYAIFGFYERRTVNMLTSFCGALHVCFITPSFPVDTSNQFVLQLRPELQEALISIIDHYKWQTFVYIYDADRGLSVLQRVLDTAAEKNWQVTAVNILTTTEEGYRMLFQDLEKKKERLVVVDCESERLNAILGQIVKLEKNGIGYHYILANLGFMDIDLNKFKESGANVTGFQLVNYTDTIPARIMQQWRTSDSRDHTRVDWKRPKYTSALTYDGVKVMAEAFQSLRRQRIDISRRGNAGDCLANPAVPWGQGIDIQRALQQVRFEGLTGNVQFNEKGRRTNYTLHVIEMKHDGIRKIGYWNEDDKFVPAATDAQAGGDNSSVQNRTYIVTTILEDPYVMLKKNANQFEGNDRYEGYCVELAAEIAKHVGYSYRLEIVSDGKYGARDPDTKAWNGMVGELVYGRADVAVAPLTITLVREEVIDFSKPFMSLGISIMIKKPQKSKPGVFSFLDPLAYEIWMCIVFAYIGVSVVLFLVSRFSPYEWHSEEFEEGRDQTTSDQSNEFGIFNSLWFSLGAFMQQGCDISPRSLSGRIVGGVWWFFTLIIISSYTANLAAFLTVERMVSPIESAEDLAKQTEIAYGTLEAGSTKEFFRRSKIAVFEKMWTYMKSAEPSVFVRTTEEGMIRVRKSKGKYAYLLESTMNEYIEQRKPCDTMKVGGNLDSKGYGIATPKGSALRNPVNLAVLKLNEQGLLDKLKNKWWYDKGECGSGGGDSKDKTSALSLSNVAGVFYILIGGLGLAMLVALIEFCYKSRSESKRMKGFCLIPQQSINEAIRTSTLPRNSGAGASGGGGSGENGRVVSQDFPKSMQSIPCMSHSSGMPLGATGL

Variants of: B1
Conditions: with kcc2a_rat Camk2a

effect of a mutation on the interaction | Variant
disrupting interaction | S567A
